{"source": "paper PMC3948114", "parents": {"B1": {"name": "unnamed (parent)", "chain 1": "HMGGQDKPFLSAWPSAVVPRGGHVTLRCHYRHRFNNFMLYKEDRIHIPIFHGRIFQESFNMSPVTTAHAGNYTCRGSHPHSPTGWSAPSNPVVIMVTGNHRKPSLLAHPGPLVKSGERVILQCWSDIMFEHFFLHKEGISKDPSRLVGQIHDGVSKANFSIGPMMLALAGTYRCYGSVTHTPYQLSAPSDPLDIVVTGPYEKPSLSAQPGPKVQAGESVTLSCSSRSSYDMYHLSREGGAHERRLPAVRKVNRTFQADFPLGPATHGGTYRCFGSFRHSPYEWSDPSDPLLVSVTGNPSSSWPSPTEPSSKSGNPRHLHILIGTSVVIILFILLLFFLLHLWCSNKKNAAVMDQEPAGNRTANSEDSDEQDPEEVTYAQLDHCVFTQRKITRPSQRPKTPPTDTILYTELPNAKPRSKVVSCP", "chain 2": "not shown", "chain 3": "not shown", "chain 4": "TSTLQEQIDW"}}, "data": [{"variants_of": "B1", "assay": "tetramer staining of transfected HEK293 cells", "conditions": "with partner chain of the complex shown; 0.2 μg tetramer; read off a plot", "values": [{"variant": "chain 1 A167G", "response (% of *001 TW10)": 10}, {"variant": "chain 1 E282A", "response (% of *001 TW10)": 26}, {"variant": "chain 1 E282Q", "response (% of *001 TW10)": 130}, {"variant": "chain 1 L166V", "response (% of *001 TW10)": 46}, {"variant": "chain 1 L166A", "response (% of *001 TW10)": 90}]}]}
